# Reference: US20100260668A1 (published 2010)
# Biological target: T1, DLL4 (DLL ECD His tag, R&D 1506-D4-050) (UniProt Q9NR61 27-529)
# T1 construct: extracellular domain; bought
# Assay: BIACORE (SPR), DVD-Ig against DLL4
Binder,Kd [nM],koff [s⁻¹],kon [M⁻¹ s⁻¹]
"DVD468 (bispecific antibody, human IgG1, kappa, DVD-Ig; N-term; VD VEGF (AB071), C-term; VD DLL4 (AB015); HC linker short, LC linker short; also called DVD-Ig DVD468; DVD468H) heavy: not shown light: DIQMTQSPSSLSASVGDRVTITCRASQVIRRSLAWYQQKPGKAPKLLIYAASNLASGVPSRFSGSGSGTDFTLTISSLQPEDFATYYCQQSNTSPLTFGQGTKVEIKRTVAAPDIQMTQSPSSLSASVGDRVTITCRASQDVSTAVAWYQQKPGKAPKLLIYSASFLYSGVPSRFSGSGSGTDFTLTISSLQPEDFATTYYCQQSYTGTVTFGQGTKVEIKRTVAAPSVFIFPPSDEQLKSGTASVVCLLNNFYPREAKVQWKVDNALQSGNSQESVTEQDSKDSTYSLSSTLTLSKADYEKHKVYACEVTHQGLSSPVTKSFNRGEC",3.76,0.000219,58200
"DVD479 (bispecific antibody, human IgG1, kappa, DVD-Ig; N-term; VD DLL4 (AB015), C-term; VD VEGF (AB071); HC linker long, LC linker short; also called DVD-Ig DVD479; DVD479H) heavy: not shown light: DIQMTQSPSSLSASVGDRVTITCRASQDVSTAVAWYQQKPGKAPKLLIYSASFLYSGVPSRFSGSGSGTDFTLTISSLQPEDFATTYYCQQSYTGTVTFGQGTKVEIKRTVAAPDIQMTQSPSSLSASVGDRVTITCRASQVIRRSLAWYQQKPGKAPKLLIYAASNLASGVPSRFSGSGSGTDFTLTISSLQPEDFATYYCQQSNTSPLTFGQGTKVEIKRTVAAPSVFIFPPSDEQLKSGTASVVCLLNNFYPREAKVQWKVDNALQSGNSQESVTEQDSKDSTYSLSSTLTLSKADYEKHKVYACEVTHQGLSSPVTKSFNRGEC",0.441,0.000174,395000
"DVD451 (bispecific antibody, human IgG1, kappa, L234A L235A, DVD-Ig; N-term; VD DLL4 (AB069), C-term; VD VEGF (AB071); HC linker long, LC linker long; also called DVD-Ig DVD451; DVD451H) heavy: not shown light: DIVMTQSPDSLAVSLGERATISCRASESVDNYGISFMKWFQQKPGQPPKLLIYAASNQGSGVPDRFSGSGSGTDFTLTISSLQAEDVAVYYCQQSKEVPWTFGGGTKVEIKRTVAAPSVFIFPPDIQMTQSPSSLSASVGDRVTITCRASQVIRRSLAWYQQKPGKAPKLLIYAASNLASGVPSRFSGSGSGTDFTLTISSLQPEDFATYYCQQSNTSPLTFGQGTKVEIKRTVAAPSVFIFPPSDEQLKSGTASVVCLLNNFYPREAKVQWKVDNALQSGNSQESVTEQDSKDSTYSLSSTLTLSKADYEKHKVYACEVTHQGLSSPVTKSFNRGEC",14,0.001,71700
"DVD463 (bispecific antibody, human IgG1, kappa, DVD-Ig; N-term; VD DLL4 (AB069), C-term; VD VEGF (AB071); HC linker short, LC linker long; also called DVD-Ig DVD463; DVD463H) heavy: not shown light: DIVMTQSPDSLAVSLGERATISCRASESVDNYGISFMKWFQQKPGQPPKLLIYAASNQGSGVPDRFSGSGSGTDFTLTISSLQAEDVAVYYCQQSKEVPWTFGGGTKVEIKRTVAAPSVFIFPPDIQMTQSPSSLSASVGDRVTITCRASQVIRRSLAWYQQKPGKAPKLLIYAASNLASGVPSRFSGSGSGTDFTLTISSLQPEDFATYYCQQSNTSPLTFGQGTKVEIKRTVAAPSVFIFPPSDEQLKSGTASVVCLLNNFYPREAKVQWKVDNALQSGNSQESVTEQDSKDSTYSLSSTLTLSKADYEKHKVYACEVTHQGLSSPVTKSFNRGEC",3.82,0.000472,123000

# Further lines, results first:
Kd [nM],koff [s⁻¹],kon [M⁻¹ s⁻¹],Binder
5.01,0.000646,129000,"DVD445 (bispecific antibody, human IgG1, kappa, DVD-Ig; N-term; VD DLL4 (AB069), C-term; VD VEGF (AB071); HC linker short, LC linker short; also called DVD-Ig DVD445; DVD445H) heavy: not shown light: DIVMTQSPDSLAVSLGERATISCRASESVDNYGISFMKWFQQKPGQPPKLLIYAASNQGSGVPDRFSGSGSGTDFTLTISSLQAEDVAVYYCQQSKEVPWTFGGGTKVEIKRTVAAPDIQMTQSPSSLSASVGDRVTITCRASQVIRRSLAWYQQKPGKAPKLLIYAASNLASGVPSRFSGSGSGTDFTLTISSLQPEDFATYYCQQSNTSPLTFGQGTKVEIKRTVAAPSVFIFPPSDEQLKSGTASVVCLLNNFYPREAKVQWKVDNALQSGNSQESVTEQDSKDSTYSLSSTLTLSKADYEKHKVYACEVTHQGLSSPVTKSFNRGEC"
4.82,0.000578,120000,"DVD457 (bispecific antibody, human IgG1, kappa, L234A L235A, DVD-Ig; N-term; VD DLL4 (AB069), C-term; VD VEGF (AB071); HC linker long, LC linker short; also called DVD-Ig DVD457; DVD457H) heavy: not shown light: DIVMTQSPDSLAVSLGERATISCRASESVDNYGISFMKWFQQKPGQPPKLLIYAASNQGSGVPDRFSGSGSGTDFTLTISSLQAEDVAVYYCQQSKEVPWTFGGGTKVEIKRTVAAPDIQMTQSPSSLSASVGDRVTITCRASQVIRRSLAWYQQKPGKAPKLLIYAASNLASGVPSRFSGSGSGTDFTLTISSLQPEDFATYYCQQSNTSPLTFGQGTKVEIKRTVAAPSVFIFPPSDEQLKSGTASVVCLLNNFYPREAKVQWKVDNALQSGNSQESVTEQDSKDSTYSLSSTLTLSKADYEKHKVYACEVTHQGLSSPVTKSFNRGEC"
1.16,–,–,"DVD485 (bispecific antibody, human IgG1, kappa, DVD-Ig; N-term; VD DLL4 (AB015), C-term; VD VEGF (AB071); HC linker short, LC linker long; also called DVD-Ig DVD485; DVD485H) heavy: not shown light: DIQMTQSPSSLSASVGDRVTITCRASQDVSTAVAWYQQKPGKAPKLLIYSASFLYSGVPSRFSGSGSGTDFTLTISSLQPEDFATTYYCQQSYTGTVTFGQGTKVEIKRTVAAPSVFIFPPDIQMTQSPSSLSASVGDRVTITCRASQVIRRSLAWYQQKPGKAPKLLIYAASNLASGVPSRFSGSGSGTDFTLTISSLQPEDFATYYCQQSNTSPLTFGQGTKVEIKRTVAAPSVFIFPPSDEQLKSGTASVVCLLNNFYPREAKVQWKVDNALQSGNSQESVTEQDSKDSTYSLSSTLTLSKADYEKHKVYACEVTHQGLSSPVTKSFNRGEC"
